B1: IgG1-F1269 (antibody)
heavy: QVQLQESGPGLVKPSETLSLTCAVSGHSISHDHAWSWVRQPPGEGLEWIGFISYSGITNYNPSLQGRVTISRDNSKNTLYLQMNSLRAEDTAVYYCARSLARTTAMDYWGEGTLVTVSSASTKGPSVFPLAPSSKSTSGGTAALGCLVKDYFPEPVTVSWNSGALTSGVHTFPAVLQSSGLYSLSSVVTVPSSSLGTQTYICNVNHKPSNTKVDKKVEPKSCDKTHTCPPCPAPELRGGPKVFLFPPKPKDTLYISRTPEVTCVVVDVSHEDPEVKFNWYVDGVEVHNAKTKPREEQYNSTYRVVSVLTVLHQDWLNGKEYKCKVSNKALPAPIEKTISKAKGQPREPQVYTLPPSRDELTKNQVSLTCLVKGFYPSDIAVEWESNGQPENNYKTTPPVLDSDGSFFLYSKLTVDKSRWQQGNVFSCSVMHEALDYHVTKKDLSLSP
light: not shown
B2: IgG1-F1329 (antibody)
heavy: QVQLQESGPGLVKPSETLSLTCAVSGHSISHDHAWSWVRQPPGEGLEWIGFISYSGITNYNPSLQGRVTISRDNSKNTLYLQMNSLRAEDTAVYYCARSLARTTAMDYWGEGTLVTVSSASTKGPSVFPLAPSSKSTSGGTAALGCLVKDYFPEPVTVSWNSGALTSGVHTFPAVLQSSGLYSLSSVVTVPSSSLGTQTYICNVNHKPSNTKVDKKVEPKSCDKTHTCPPCPAPELRRGPKVFLFPPKPKDTLYITRTPEVTCVVVDVSHEDPEVKFNWYVDGVEVHNAKTKPREEQYNSTYRVVSVLTVLHQDWLNGKEYKCKVSNKALPAPIEKTISKAKGQPREPQVYTLPPSRDELTKNQVSLTCLVKGFYPSDIAVEWESNGQPENNYKTTPPVLDSDGSFFLYSKLTVDKSRWQQGNVFSCSVMHEALHYHVTRKELSLSP
light: not shown
B3: F1566 (antibody)
heavy: QVQLQESGPGLVKPSETLSLTCAVSGHSISHDHAWSWVRQPPGEGLEWIGFISYSGITNYNPSLQGRVTISRDNSKNTLYLQMNSLRAEDTAVYYCARSLARTTAMDYWGEGTLVTVSSASTKGPSVFPLAPSSKSTSGGTAALGCLVKDYFPEPVTVSWNSGALTSGVHTFPAVLQSSGLYSLSSVVTVPSSSLGTQTYICNVNHKPSNTKVDKKVEPKSCDKTHTCPPCPAPELRGGPKVFLFPPKPKDTLYITREPEVTCVVVDVSHEDPEVKFNWYVDGVEVHEAKTKPREEQYNSTYRVVSVLTVLHQDWLNGKEYKCKVSNKALPAPIEKTISKAKGQPREPQVYTLPPSRDELTKNQVSLTCLVKGFYPSDIAVEWESNGQPENNYKTTPPVLDSDGSFFLYSKLTVDKSRWQQGNVFSCSVMHEALDYHVTKKELSLSP
light: DIQMTQSPSSLSASVGDSVTITCQASTDISSHLNWYQQKPGKAPELLIYYGSHLLSGVPSRFSGSGSGTDFTFTISSLEAEDAATYYCGQGNRLPYTFGQGTKVEIERTVAAPSVFIFPPSDEQLKSGTASVVCLLNNFYPREAKVQWKVDNALQSGNSQESVTEQDSKDSTYSLSSTLTLSKADYEKHKVYACEVTHQGLSSPVTKSFNRGEC
B4: IgG1-F1350 (antibody)
heavy: QVQLQESGPGLVKPSETLSLTCAVSGHSISHDHAWSWVRQPPGEGLEWIGFISYSGITNYNPSLQGRVTISRDNSKNTLYLQMNSLRAEDTAVYYCARSLARTTAMDYWGEGTLVTVSSASTKGPSVFPLAPSSKSTSGGTAALGCLVKDYFPEPVTVSWNSGALTSGVHTFPAVLQSSGLYSLSSVVTVPSSSLGTQTYICNVNHKPSNTKVDKKVEPKSCDKTHTCPPCPAPELRGGPKVFLFPPKPKDTLYISRTPEVTCVVVDVSHEDPEVKFNWYVDGVEVHNAKTKPREEQYNSTYRVVSVLTVLHQDWLNGKEYKCKVSNKALPAPIEKTISKAKGQPREPQVYTLPPSRDELTKNQVSLTCLVKGFYPSDIAVEWESNGQPENNYKTTPPVLDSDGSFFLYSKLTVDKSRWQQGNVFSCSVMHEALHYHFTKKELSLSP
light: not shown
B5: IgG1-F1349 (antibody)
heavy: QVQLQESGPGLVKPSETLSLTCAVSGHSISHDHAWSWVRQPPGEGLEWIGFISYSGITNYNPSLQGRVTISRDNSKNTLYLQMNSLRAEDTAVYYCARSLARTTAMDYWGEGTLVTVSSASTKGPSVFPLAPSSKSTSGGTAALGCLVKDYFPEPVTVSWNSGALTSGVHTFPAVLQSSGLYSLSSVVTVPSSSLGTQTYICNVNHKPSNTKVDKKVEPKSCDKTHTCPPCPAPELRGGPKVFLFPPKPKDTLYISRTPEVTCVVVDVSHEDPEVKFNWYVDGVEVHNAKTKPREEQYNSTYRVVSVLTVLHQDWLNGKEYKCKVSNKALPAPIEKTISKAKGQPREPQVYTLPPSRDELTKNQVSLTCLVKGFYPSDIAVEWESNGQPENNYKTTPPVLDSDGSFFLYSKLTVDKSRWQQGNVFSCSVMHEALHYHTTRKELSLSP
light: not shown
B6: IgG1-F1306 (antibody)
heavy: QVQLQESGPGLVKPSETLSLTCAVSGHSISHDHAWSWVRQPPGEGLEWIGFISYSGITNYNPSLQGRVTISRDNSKNTLYLQMNSLRAEDTAVYYCARSLARTTAMDYWGEGTLVTVSSASTKGPSVFPLAPSSKSTSGGTAALGCLVKDYFPEPVTVSWNSGALTSGVHTFPAVLQSSGLYSLSSVVTVPSSSLGTQTYICNVNHKPSNTKVDKKVEPKSCDKTHTCPPCPAPELRGGPKVFLFPPKPKDTLYISRTPEVTCVVVDVSHEDPEVKFNWYVDGVEVHNAKTKPREEQYNSTYRVVSVLTVLHQDWLNGKEYKCKVSNKALPAPIEKTISKAKGQPREPQVYTLPPSRDELTKNQVSLTCLVKGFYPSDIAVEWESNGQPENNYKTTPPVLDSDGSFFLYSKLTVDKSRWQQGNVFSCSVMHEALDYHVTKKELSLSP
light: not shown
B7: IgG1-F1344 (antibody)
heavy: QVQLQESGPGLVKPSETLSLTCAVSGHSISHDHAWSWVRQPPGEGLEWIGFISYSGITNYNPSLQGRVTISRDNSKNTLYLQMNSLRAEDTAVYYCARSLARTTAMDYWGEGTLVTVSSASTKGPSVFPLAPSSKSTSGGTAALGCLVKDYFPEPVTVSWNSGALTSGVHTFPAVLQSSGLYSLSSVVTVPSSSLGTQTYICNVNHKPSNTKVDKKVEPKSCDKTHTCPPCPAPELRGGPKVFLFPPKPKDTLYISRTPEVTCVVVDVSHEDPEVKFNWYVDGVEVHNAKTKPREEQYNSTYRVVSVLTVLHQDWLNGKEYKCKVSNKALPAPIEKTISKAKGQPREPQVYTLPPSRDELTKNQVSLTCLVKGFYPSDIAVEWESNGQPENNYKTTPPVLDSDGSFFLYSKLTVDKSRWQQGNVFSCSVMHEALHYHTTKKELSLSP
light: not shown
B8: IgG1-F1331 (antibody)
heavy: QVQLQESGPGLVKPSETLSLTCAVSGHSISHDHAWSWVRQPPGEGLEWIGFISYSGITNYNPSLQGRVTISRDNSKNTLYLQMNSLRAEDTAVYYCARSLARTTAMDYWGEGTLVTVSSASTKGPSVFPLAPSSKSTSGGTAALGCLVKDYFPEPVTVSWNSGALTSGVHTFPAVLQSSGLYSLSSVVTVPSSSLGTQTYICNVNHKPSNTKVDKKVEPKSCDKTHTCPPCPAPELRRGPKVFLFPPKPKDTLYITREPEVTCVVVDVSHEDPEVKFNWYVDGVEVHNAKTKPREEQYNSTYRVVSVLTVLHQDWLNGKEYKCKVSNKALPAPIEKTISKAKGQPREPQVYTLPPSRDELTKNQVSLTCLVKGFYPSDIAVEWESNGQPENNYKTTPPVLDSDGSFFLYSKLTVDKSRWQQGNVFSCSVMHEALHYHVTRKELSLSP
light: not shown
B9: F1601 (antibody)
heavy: QVQLQESGPGLVKPSETLSLTCAVSGHSISHDHAWSWVRQPPGEGLEWIGFISYSGITNYNPSLQGRVTISRDNSKNTLYLQMNSLRAEDTAVYYCARSLARTTAMDYWGEGTLVTVSSASTKGPSVFPLAPSSKSTSGGTAALGCLVKDYFPEPVTVSWNSGALTSGVHTFPAVLQSSGLYSLSSVVTVPSSSLGTQTYICNVNHKPSNTKVDKKVEPKSCDKTHTCPPCPAPELRGGPKVFLFPPKPKDTLYITREPEVTCVVVDVSHEDPEVKFNWYVDGVEVHEAKTKPREEQYNSTYRVVSVLTVLHQDWLNGKEYKCKVSNKALPAPIEKTISKAKGQPREPQVYTLPPSRDELTKNQVSLTCLVKGFYPSDIAVEWESNGQPENNYKTTPPVLDSDGSFFLYSKLTVDKSRWQQGNVFSCSVMHEALDYHVTKKDLSLSP
light: DIQMTQSPSSLSASVGDSVTITCQASTDISSHLNWYQQKPGKAPELLIYYGSHLLSGVPSRFSGSGSGTDFTFTISSLEAEDAATYYCGQGNRLPYTFGQGTKVEIERTVAAPSVFIFPPSDEQLKSGTASVVCLLNNFYPREAKVQWKVDNALQSGNSQESVTEQDSKDSTYSLSSTLTLSKADYEKHKVYACEVTHQGLSSPVTKSFNRGEC
B10: IgG1-F1305 (antibody)
heavy: QVQLQESGPGLVKPSETLSLTCAVSGHSISHDHAWSWVRQPPGEGLEWIGFISYSGITNYNPSLQGRVTISRDNSKNTLYLQMNSLRAEDTAVYYCARSLARTTAMDYWGEGTLVTVSSASTKGPSVFPLAPSSKSTSGGTAALGCLVKDYFPEPVTVSWNSGALTSGVHTFPAVLQSSGLYSLSSVVTVPSSSLGTQTYICNVNHKPSNTKVDKKVEPKSCDKTHTCPPCPAPELRGGPKVFLFPPKPKDTLYISRTPEVTCVVVDVSHEDPEVKFNWYVDGVEVHNAKTKPREEQYNSTYRVVSVLTVLHQDWLNGKEYKCKVSNKALPAPIEKTISKAKGQPREPQVYTLPPSRDELTKNQVSLTCLVKGFYPSDIAVEWESNGQPENNYKTTPPVLDSDGSFFLYSKLTVDKSRWQQGNVFSCSVMHEALDYHVTRKDLSLSP
light: not shown
B11: IgG1-F1351 (antibody)
heavy: QVQLQESGPGLVKPSETLSLTCAVSGHSISHDHAWSWVRQPPGEGLEWIGFISYSGITNYNPSLQGRVTISRDNSKNTLYLQMNSLRAEDTAVYYCARSLARTTAMDYWGEGTLVTVSSASTKGPSVFPLAPSSKSTSGGTAALGCLVKDYFPEPVTVSWNSGALTSGVHTFPAVLQSSGLYSLSSVVTVPSSSLGTQTYICNVNHKPSNTKVDKKVEPKSCDKTHTCPPCPAPELRGGPKVFLFPPKPKDTLYISRTPEVTCVVVDVSHEDPEVKFNWYVDGVEVHNAKTKPREEQYNSTYRVVSVLTVLHQDWLNGKEYKCKVSNKALPAPIEKTISKAKGQPREPQVYTLPPSRDELTKNQVSLTCLVKGFYPSDIAVEWESNGQPENNYKTTPPVLDSDGSFFLYSKLTVDKSRWQQGNVFSCSVMHEALHYHFTRKELSLSP
light: not shown

For this test, the target named is T1, soluble human FcRn (human, UniProt P55899 24-297; P61769 21-119).
T1 construct: Heterodimer of alpha chain and beta2-microglobulin; also called hFcRn
T1 sequence (P55899 24-297 limits assumed, chain 1 of 2): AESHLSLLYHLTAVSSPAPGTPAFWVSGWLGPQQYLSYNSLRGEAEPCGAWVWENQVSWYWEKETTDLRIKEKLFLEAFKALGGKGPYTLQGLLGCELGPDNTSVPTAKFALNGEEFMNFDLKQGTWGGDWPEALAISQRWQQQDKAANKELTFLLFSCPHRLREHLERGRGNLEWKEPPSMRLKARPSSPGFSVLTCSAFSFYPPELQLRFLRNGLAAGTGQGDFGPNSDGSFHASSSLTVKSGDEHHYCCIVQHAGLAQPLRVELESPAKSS
T1 sequence (P61769 21-119 limits assumed, chain 2 of 2): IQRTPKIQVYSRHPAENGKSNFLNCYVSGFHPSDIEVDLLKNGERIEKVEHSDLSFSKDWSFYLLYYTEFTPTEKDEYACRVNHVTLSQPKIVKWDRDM
The test is described as follows: SPR (Biacore), pH 7.0.
On to B1, for which binding was put at a Kd of 170 nM.

For B2, the equilibrium dissociation constant (Kd) worked out at 130 nM.

As to B3, the Kd was 40 nM. As for B4, binding was put at a Kd of 120 nM.

Consider B5, for which the Kd was 340 nM. With B6 the figure was 190 nM; with B7, 400 nM; with B8, 77 nM.

In the case of B9, binding was characterised by a dissociation constant (Kd) of 35 nM.

Take B10: the Kd amounted to 200 nM.

In the case of B11, binding was put at a Kd of 160 nM.
